From patent US10052364B2, “Osteocalcin as a treatment for cognitive disorders” (THE TRUSTEES OF COLUMBIA UNIVERSITY IN THE CITY OF NEW YORK, priority 2013, dated 2018) come the findings set out here.

In data set [1] the test system is mouse primary hindbrain neurons (MPHN). The data set can be described thus: Calcium flux in primary hindbrain neurons. Type of data set: cell-based. Conditions: MPHN treated with undercarboxylated or carboxylated osteocalcin. As to the method: For calcium imaging, primary hindbrain neurons seeded on 12 mm coverslips were allowed the appropriate time to form structural networks. These cultures were washed with HBSS and loaded with 2.5 μM FURA-2, AM calcium indicator for 45 minutes at room temperature, according to the manufacturer's protocol. Cells were then washed to remove excess indicator and incubated for 30 minutes to allow internalized esters to become de-esterified. 30 ng/ml of osteocalcin was prepared with the control buffer of 1×HBBS supplemented with 10 mM HEPES buffer and 2 mM CaCl2. Using a Zeiss microscope with a perfusion system, coverslips were first perfused with control and osteocalcin. After each stimulation, cells were depolarized with 50 mM KCl to determine the percentage of live cells being imaged. All treatments were recorded using two-photon laser scanning microscopy by Prairie Technologies and analyzed by Z axis profile plotting using ImageJ.
To determine if osteocalcin acts directly on neurons to modulate neurotransmitter synthesis, several types of assays were performed. First, brainstem and midbrain explants from WT and Gprc6a^−/− mice were generated. […] Third, to further confirm that osteocalcin signals in neurons of the hindbrain, calcium flux in MPHN treated with undercarboxylated or carboxylated osteocalcin (FIG. 3F) was measured. […]

Data set [2] in a line: Positive control for blood brain barrier crossing: subcutaneous leptin infusion in ob/ob mice, content measured in brain. Type of data set: in vivo, mouse. Conditions: subcutaneous infusion 50 ng/hour, seven days, 3 month-old ob/ob mice. As to the method: FIG. 3. Osteocalcin binds to neurons in the brain. (A) Measurement of the total osteocalcin in 3 month-old Osteocalcin^−/− mice infused subcutaneously for 7 days with either uncarboxylated osteocalcin (300 ng/hour, right panel) or PBS (left panel). Osteocalcin levels were measured in bone, serum, and different parts of the brain (cortex, midbrain, hypothalamus, brainstem, and cerebellum). (B) Subcutaneous infusion of leptin ([…], right panel) or PBS (left panel) for 7 days in ob/ob mice. Leptin levels were measured in serum, cortex, midbrain, hypothalamus, brainstem, and cerebellum. […]
Osteocalcin^−/−, Gprc6a^−/−, Osteocalcin-mCherry, and Osteocalcin floxed mice have been previously described (Ducy et al., 1996, Nature 382:448-452; Oury et al., 2011, Cell 144:796-809). Mouse genotypes were determined by PCR. […] Leptin and osteocalcin content in sera and tissues were determined by ELISA.
To understand how this behavioral phenotype develops, whether osteocalcin crosses the blood brain barrier (BBB) was tested by installing pumps that subcutaneously delivered vehicle or uncarboxylated osteocalcin (50 ng/hour) in three-month-old Osteocalcin^−/− mice. […] Seven days later, osteocalcin and leptin content were measured in blood, bone, and in various parts of the brain in Osteocalcin−/− and ob/ob mice, respectively. […]

Data set [3] concerns brainstem and midbrain explants from WT and Gprc6a-/- mice. The experiment in a line: Gene expression (qPCR) in brainstem and midbrain explants. It counts as cell-based, mouse. To be noted: leptin, WT or Gprc6a-/- brainstem explants. As to the method: For gene expression studies, RNA was isolated from primary neurons or tissue using TRIZOL® (Invitrogen). cDNA synthesis was performed following a standard protocol from Invitrogen and qPCR analyses were done using specific quantitative PCR primers from SABiosciences (www.sabiosciences.com/RT2PCR.php).
Brains were dissected and incubated for 30 minutes in ice cold oxygenated artificial cerebrospinal fluid (ACSF). Brains were then sliced at 500 μm at the midbrain, −1.55 to −2.35 mm from the bregma, and at the level of the brainstem, from −4.04 to −4.48 mm and from −4.60 to −5.20 mm from the bregma, to include the median and dorsal raphe, respectively. These slices were incubated in ACSF for 1 h, constantly oxygenated (95% 02 and 5% CO2) for 4 h, after which they were treated with either osteocalcin (10 ng/ml) or PBS for four hours. Expression of Tph2, TH, GAD1, GAD2, and Ddc was measured by qPCR.
To determine if osteocalcin acts directly on neurons to modulate neurotransmitter synthesis, several types of assays were performed. First, brainstem and midbrain explants from WT and Gprc6a^−/− mice were generated. Brains were sliced (500 μm) at the level of the median and dorsal raphe of the brainstem (from −4.04 to −4.48 mm and from −4.60 to −5.20 mm, respectively), so that they would be enriched in serotonin-producing neurons, as well as at the level of substantia nigrae and ventral tegmental areas (VTA) of the midbrain (from −1.55 to −2.35 mm and from −2.55 to −3.25 mm, respectively). Enrichment in serotoninergic and catecholaminergic neurons in these explants was verified by their high Tph2 and Th expression. While leptin, used here as a positive control, reduced, as it should, Tph2 expression in WT or Gprc6a^−/− brainstem explants, osteocalcin (3 ng/ml) increased expression of this gene 2.5 fold in both WT and Gprc6a^−/− explants. (FIG. 3D). Additionally, osteocalcin increased Th expression in midbrain explants and decreased Gad1 expression in both WT and in Gprc6a^−/− hindbrain explants (FIG. 3D). Second, the cultured WT and Gprc6a^−/− mouse primary hindbrain neurons (MPHN) were treated with osteocalcin (3 ng/ml). […] Third, to further confirm that osteocalcin signals in neurons of the hindbrain, calcium flux in MPHN treated with undercarboxylated or carboxylated osteocalcin (FIG. 3F) was measured. […] Moreover, osteocalcin inhibits the action potential frequency of the GABAergic interneurons of the hindbrain (FIG. 3H).
A general note: In qPCR the cycle at which signal appears reflects the starting amount.

No end group written: not given here.

With “carboxylated osteocalcin: Carboxylated (Gla) form of osteocalcin used as comparison in the calcium flux assay (YLGASVPSPDPLEPTREQCELNPACDELSDQYGLKTAYKRIYGITI; ends and bridges not checked; also: gamma-carboxylated (Gla) form, places not given here; UniProt P86546 50-95, looked up) [reference compound]”, in data set [1], the “calcium fluxes in primary hindbrain neurons” value is “not”.

B1: leptin: adipocyte-derived hormone, positive control known to cross the BBB (protein, UniProt P41160 22-167, looked up)
Leptin: VPIQKVQDDTKTLIKTIVTRINDISHTQSVSAKQRVTGLDFIPGLHPILSLSKMDQTLAVYQQVLTSLPSQNVLQIANDLENLRDLLHLLAFSKSCSLPQTSGLQKPESLDGVLEASLYSTEVVALSRLQGSLQDILQQLDVSPEC
As for B1, the “leptin content in parts of the brain” value in data set [2] is “could be detected in the brainstem and hypothalamus”. In data set [3], the “Tph2 expression in brainstem explants (positive control)” value is on record as “reduced”.
